In paper PMC8131915 (The Journal of Biological Chemistry, 2021):

B1: 75-mer ssDNA, HIS4 promoter (ssDNA)
DNA: GCAGGAGGACGTAGGGTAGGACTATGAACAGTAGTATACTGTGTATATAATAGATATGGAACGTTATATTCACCT
B2: 75-mer dsDNA, HIS4 TATA-box promoter (dsDNA)
DNA 1: B1 DNA
DNA 2: AGGTGAATATAACGTTCCATATCTATTATATACACAGTATACTACTGTTCATAGTCCTACCCTACGTCCTCCTGC
B3: Taf12 (natural protein, S. cerevisiae (endogenous), UniProt Q03761 1-539, looked up)
chain: MSSNPENSGVNANNNTGTGNADAITGAQQNMVLQPRQLQEMAAKFRTLLTEARNVGETTPRGKELMFQAAKIKQVYDALTLNRRRQQAAQAYNNTSNSNSSNPASIPTENVPNSSQQQQQQQQQTRNNSNKFSNMIKQVLTPEENQEYEKLWQNFQVRHTSIKEKETYLKQNIDRLEQEINKQTDEGPKQQLQEKKIELLNDWKVLKIEYTKLFNNYQNSKKTFYVECARHNPALHKFLQESTQQQRVQQQRVQQQQQQQQQQQQQQQQQQQQQQQRQGQNQRKISSSNSTEIPSVTGPDALKSQQQQQNTITATNNPRGNVNTSQTEQSKAKVTNVNATASMLNNISSSKSAIFKQTEPAIPISENISTKTPAPVAYRSNRPTITGGSAMNASALNTPATTKLPPYEMDTQRVMSKRKLRELVKTVGIDEGDGETVIDGDVEELLLDLADDFVTNVTAFSCRLAKHRKSDNLEARDIQLHLERNWNIRIPGYSADEIRSTRKWNPSQNYNQKLQSITSDKVAAAKNNGNNVASLNTKK
B4: Ada1 (natural protein, S. cerevisiae (endogenous), UniProt Q12060 1-488, looked up)
chain: MSAIQSPAPKPLQPTYPAASPASTNAYMKPGLIGSPAVSNHTEPNNGNNETAEPQGPNQRIDLGAMIEELTSLLGKESWTKYAQIISLFILGKLSRKELSNELELVFSPSAASLEKSNTNHHHSLVRLHNQLLLGIFANSLRENPLGRNGNESSWGFGNGSNNPNNKLKRINKHNSQIEVYKKIVMSLPLNDRNRLKMITKEAGKRGFIFCSVFQARLNNIPKIPIVTNPESLKRVKSNNLKTPLEWSQDIMNGFNVPLASESHSLPDTDSFYLRMVGIAREHGLVGTVDARCVELISLALDQYLKNIIEFTIDTVRYRRKKYSDYYDLNESGLYKSVSEMAADKRDAKIKQLDDDKNEDECADEAKSINNGNNSSKDDIGDISMSSITKAGEAVNEELHENRTISLTNEDIYDSLSIFPNLVEPSGSYYALTNLGLVNDDELVDMKSNIDDLPDFLNEKPTFTPLDERNVGTRHELNWLIKGILTED

Tests used:
[1] = target: SAGA complex (Spt7-TAP purified) (Saccharomyces cerevisiae, UniProt P35177;P38915;P38811;P50875;P06844;Q12060;P38129;P53040;Q05027;Q12030;Q03761;Q03 …); assay: fluorescence polarization
[2] = target: SAGA complex (Spt7-TAP purified);TBP (Saccharomyces cerevisiae;Saccharomyces …, UniProt P35177;P38915;P38811;P50875;P06844;Q12060;P38129;P53040;Q05027;Q12030;Q03761;Q03 …, |); assay: EMSA
[3] = target: transcription-associated protein 1 (Tra1) (S. cerevisiae (endogenous), UniProt P38811 1-3744); assay: cross-linking
Chain of transcription-associated protein 1 (Tra1) (P38811 whole entry): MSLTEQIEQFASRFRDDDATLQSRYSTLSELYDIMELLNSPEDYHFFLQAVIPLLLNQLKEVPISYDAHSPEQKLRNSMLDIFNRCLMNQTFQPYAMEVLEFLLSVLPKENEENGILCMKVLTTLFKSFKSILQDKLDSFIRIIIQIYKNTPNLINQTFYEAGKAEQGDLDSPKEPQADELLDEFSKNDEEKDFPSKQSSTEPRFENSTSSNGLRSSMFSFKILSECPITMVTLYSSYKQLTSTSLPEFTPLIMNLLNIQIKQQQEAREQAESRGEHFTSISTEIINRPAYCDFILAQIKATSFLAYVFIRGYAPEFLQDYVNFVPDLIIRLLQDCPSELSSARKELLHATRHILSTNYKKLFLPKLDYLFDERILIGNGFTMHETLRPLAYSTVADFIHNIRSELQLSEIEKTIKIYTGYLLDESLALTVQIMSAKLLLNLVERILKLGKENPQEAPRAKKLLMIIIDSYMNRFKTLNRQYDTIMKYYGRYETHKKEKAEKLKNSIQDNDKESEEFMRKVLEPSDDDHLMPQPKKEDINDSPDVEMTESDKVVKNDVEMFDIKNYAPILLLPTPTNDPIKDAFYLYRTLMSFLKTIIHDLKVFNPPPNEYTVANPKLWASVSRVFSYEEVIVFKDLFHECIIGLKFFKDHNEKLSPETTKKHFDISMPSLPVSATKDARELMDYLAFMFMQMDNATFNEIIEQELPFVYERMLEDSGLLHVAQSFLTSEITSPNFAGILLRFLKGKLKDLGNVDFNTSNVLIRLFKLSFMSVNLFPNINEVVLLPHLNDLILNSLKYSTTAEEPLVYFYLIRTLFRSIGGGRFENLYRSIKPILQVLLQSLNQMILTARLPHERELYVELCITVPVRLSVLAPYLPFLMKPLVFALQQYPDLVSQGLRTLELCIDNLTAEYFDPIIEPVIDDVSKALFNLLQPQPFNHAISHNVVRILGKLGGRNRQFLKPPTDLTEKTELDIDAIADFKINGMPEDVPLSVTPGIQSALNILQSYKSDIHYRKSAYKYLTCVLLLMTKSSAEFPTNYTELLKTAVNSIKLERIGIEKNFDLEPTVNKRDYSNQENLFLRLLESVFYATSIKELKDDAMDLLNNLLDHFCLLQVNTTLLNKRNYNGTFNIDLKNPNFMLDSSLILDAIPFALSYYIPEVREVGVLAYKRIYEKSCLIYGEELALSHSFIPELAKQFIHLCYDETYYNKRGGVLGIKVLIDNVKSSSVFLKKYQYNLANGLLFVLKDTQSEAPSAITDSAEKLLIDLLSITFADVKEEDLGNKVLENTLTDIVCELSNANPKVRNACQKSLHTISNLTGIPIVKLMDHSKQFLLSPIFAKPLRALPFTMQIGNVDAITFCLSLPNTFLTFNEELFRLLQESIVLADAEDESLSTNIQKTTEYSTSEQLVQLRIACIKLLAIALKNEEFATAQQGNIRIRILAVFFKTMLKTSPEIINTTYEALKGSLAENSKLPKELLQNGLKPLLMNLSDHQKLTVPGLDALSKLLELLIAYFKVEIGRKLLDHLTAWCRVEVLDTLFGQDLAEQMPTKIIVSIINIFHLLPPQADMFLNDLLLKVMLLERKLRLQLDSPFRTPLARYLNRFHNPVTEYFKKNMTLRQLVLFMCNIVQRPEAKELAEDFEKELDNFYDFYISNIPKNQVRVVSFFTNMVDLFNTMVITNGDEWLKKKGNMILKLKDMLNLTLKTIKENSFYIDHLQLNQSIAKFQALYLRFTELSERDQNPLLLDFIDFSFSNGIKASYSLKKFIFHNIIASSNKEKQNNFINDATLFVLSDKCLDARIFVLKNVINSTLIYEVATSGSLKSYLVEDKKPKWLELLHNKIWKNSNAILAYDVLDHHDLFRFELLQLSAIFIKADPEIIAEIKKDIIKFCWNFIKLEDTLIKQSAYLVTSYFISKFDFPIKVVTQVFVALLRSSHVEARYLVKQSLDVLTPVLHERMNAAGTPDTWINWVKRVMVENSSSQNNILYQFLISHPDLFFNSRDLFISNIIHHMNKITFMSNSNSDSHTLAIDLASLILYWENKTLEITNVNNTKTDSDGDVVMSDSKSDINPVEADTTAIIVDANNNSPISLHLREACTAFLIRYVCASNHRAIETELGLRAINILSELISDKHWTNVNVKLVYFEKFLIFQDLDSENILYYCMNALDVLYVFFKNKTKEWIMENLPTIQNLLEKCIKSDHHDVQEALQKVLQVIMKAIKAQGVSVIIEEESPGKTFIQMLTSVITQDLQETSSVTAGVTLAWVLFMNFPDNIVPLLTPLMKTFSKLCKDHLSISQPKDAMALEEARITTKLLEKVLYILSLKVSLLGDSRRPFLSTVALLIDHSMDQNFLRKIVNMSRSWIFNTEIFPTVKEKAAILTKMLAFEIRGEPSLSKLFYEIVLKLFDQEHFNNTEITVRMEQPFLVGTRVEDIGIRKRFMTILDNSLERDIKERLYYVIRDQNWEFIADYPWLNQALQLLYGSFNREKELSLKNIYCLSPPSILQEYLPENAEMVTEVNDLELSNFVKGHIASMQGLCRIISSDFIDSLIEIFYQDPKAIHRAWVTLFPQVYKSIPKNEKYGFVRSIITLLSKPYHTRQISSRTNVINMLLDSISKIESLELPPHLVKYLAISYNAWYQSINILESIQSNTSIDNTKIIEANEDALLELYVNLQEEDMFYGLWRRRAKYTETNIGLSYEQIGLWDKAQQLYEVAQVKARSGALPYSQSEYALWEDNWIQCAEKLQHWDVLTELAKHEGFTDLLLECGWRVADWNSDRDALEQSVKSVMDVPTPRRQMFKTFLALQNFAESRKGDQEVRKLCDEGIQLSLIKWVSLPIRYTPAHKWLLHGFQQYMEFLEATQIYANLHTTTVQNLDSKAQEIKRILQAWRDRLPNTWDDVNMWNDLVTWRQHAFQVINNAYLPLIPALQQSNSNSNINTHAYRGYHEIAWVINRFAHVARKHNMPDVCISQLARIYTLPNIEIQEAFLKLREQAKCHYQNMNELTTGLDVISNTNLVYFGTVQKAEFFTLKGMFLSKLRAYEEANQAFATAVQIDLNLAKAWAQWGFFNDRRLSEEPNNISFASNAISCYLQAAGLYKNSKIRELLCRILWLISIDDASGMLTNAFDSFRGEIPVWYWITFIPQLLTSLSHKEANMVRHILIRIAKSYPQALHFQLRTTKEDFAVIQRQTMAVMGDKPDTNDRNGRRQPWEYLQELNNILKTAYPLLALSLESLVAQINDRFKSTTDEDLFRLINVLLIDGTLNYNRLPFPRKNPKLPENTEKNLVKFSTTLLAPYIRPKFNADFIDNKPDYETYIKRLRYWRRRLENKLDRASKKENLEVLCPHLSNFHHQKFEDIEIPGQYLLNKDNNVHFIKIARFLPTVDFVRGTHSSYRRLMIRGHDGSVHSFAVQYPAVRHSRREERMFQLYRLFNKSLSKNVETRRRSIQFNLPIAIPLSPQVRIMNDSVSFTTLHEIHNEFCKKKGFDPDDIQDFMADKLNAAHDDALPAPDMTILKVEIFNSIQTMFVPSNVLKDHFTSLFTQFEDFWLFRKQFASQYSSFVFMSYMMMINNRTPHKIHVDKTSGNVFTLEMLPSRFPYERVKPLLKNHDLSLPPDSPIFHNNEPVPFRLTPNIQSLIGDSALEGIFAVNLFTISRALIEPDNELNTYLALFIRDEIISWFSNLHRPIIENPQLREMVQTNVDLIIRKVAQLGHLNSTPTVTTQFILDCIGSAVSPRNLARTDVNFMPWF

Row | Binder | binding result [3] | other results
1 | B1 | – | Kd [1]: 15 ± 11 nM
2 | B2 | – | binding result [2]: binds
3 | B3 | binds | –
4 | B4 | binds | –
